Measured values published in paper PMC6239910 (Molecular cell, 2018).
Residue numbers refer to the chain shown, from its start. Names and notes keep the numbering of the source. Read-outs that look alike come from different tables or passages of the source.

B1: UHRF1-UBL (residues 1–76) (domain or fragment, human, UniProt Q96T88 1-76, looked up)
chain: MWIQVRTMDGRQTHTVDSLSRLTKVEELRRKIQELFHVEPGLQRLFYRGKQMEDGHTLFDYEVRLNDTIQLLVRQS
B2: UHRF1-UBL W2V (domain or fragment, human, UniProt Q96T88 1-76, looked up)
chain: B1 chain with W2V
B3: UHRF1-UBL K50R (domain or fragment, human, UniProt Q96T88 1-76, looked up)
chain: B1 chain with K50R
B4: UHRF1-UBL F59V (domain or fragment, human, UniProt Q96T88 1-76, looked up)
chain: B1 chain with F59V
B5: UHRF1-UBL L65A (domain or fragment, human, UniProt Q96T88 1-76, looked up)
chain: B1 chain with L65A
B6: UHRF2-UBL (residues 1–81) (domain or fragment, UniProt Q96PU4 1-81, looked up)
chain: MWIQVRTIDGSKTCTIEDVSRKATIEELRERVWALFDVRPECQRLFYRGKQLENGYTLFDYDVGLNDIIQLLVRPDPDHLP

Tests used:
[1] = molecular target: T1, Ube2D3(C85S) (human, UniProt P61077 1-147, C85S); experiment: NMR titration
[2] = molecular target: Ube2D1 (human, UniProt P51668 1-147); experiment: ITC
[3] = molecular target: T1, Ube2D3(C85S); experiment: NMR titration; remark: listed apart in the source

Ube2D1, sequence (P51668 whole entry): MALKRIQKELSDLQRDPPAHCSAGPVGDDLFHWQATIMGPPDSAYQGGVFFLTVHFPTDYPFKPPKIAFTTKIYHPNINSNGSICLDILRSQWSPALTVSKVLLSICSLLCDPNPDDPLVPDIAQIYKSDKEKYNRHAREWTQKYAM
T1 sequence (P61077 whole entry C85S): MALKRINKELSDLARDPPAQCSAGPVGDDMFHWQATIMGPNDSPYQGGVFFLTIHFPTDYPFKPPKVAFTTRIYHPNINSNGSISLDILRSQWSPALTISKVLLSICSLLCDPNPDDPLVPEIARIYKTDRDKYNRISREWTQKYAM

Binder | binding result [2] | further results
B1 |  | Kd [1]: 15 µM
B2 | binds | 
B3 | binds | 
B4 | binds | 
B5 | binds | 
B6 |  | Kd [3]: 215 µM
